Measured values published in the supplement of paper PMC10724198.
± gives the standard deviation of the averaged measurements.

System: Saccharomyces cerevisiae
Assay: protein stability index of tFT-peptide fusion (C-terminal peptide) (PSI (0-1 scale)); higher = more stable (slower turnover)
Details: genetic background: wild type; temperature: 30 C
Method: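 Multiplexed protein stability (MPS) profiling in S. cerevisiae. Random 12-aa peptides (tFT-X12 library) are fused to the C-terminus of a sfGFP-mCherry tandem fluorescent timer, after mCherry and a GGGS linker. Cells are FACS-sorted into 8 mCherry/sfGFP bins and deep-sequenced. The protein stability index (PSI) is the read-weighted bin average, scaled from 0 (unstable) to 1 (stable). Only peptides with >10 reads are reported; cells were grown at 30 °C in SC-His with glucose.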
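Also: PSI is a weighted mean of sequencing reads over stability bins, variants kept only with over 10 reads, mCherry proximal and sfGFP distal, peptide attached via GGGS linker.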

Sequence | protein stability index
ATIRNSMPYHFN | 0.646 ± 0.044
ATLGTVTLAFSV | 0.634 ± 0.044
ATLSSVSSGSSF | 0.647 ± 0.12
ATNCERLHNPHL | 0.727 ± 0.0034
ATPTQADRMPVT | 0.721 ± 0.1
ATSFHALPVFTS | 0.644 ± 0.053
ATSPTSGGIHTA | 0.662 ± 0.0092
ATYPVPMPPTPQ | 0.734 ± 0.037
AVAFELCDLTRG | 0.702 ± 0.038
AVCSLTLGFGWW | 0.755 ± 0.034
AVDSGSLERIRM | 0.69037 ± 0.00042
AVFGLEAVMRRG | 0.753 ± 0.15
AVFQEIPFGIPP | 0.696 ± 0.073
AVGGVFVSSGGL | 0.691 ± 0.013
AVGTAPVFLWFG | 0.679 ± 0.0083
AVISDVSLKPNF | 0.673 ± 0.082
AVISSSFFGSSY | 0.721 ± 0.076
AVLPFFPCFSAF | 0.69 ± 0.038
AVLSVGHWGSGL | 0.69 ± 0.028
AVSESSRRTQFF | 0.7039 ± 0.0025
AVSLTLCISSIS | 0.5869 ± 0.0052
AVVRVSLPSTVV | 0.667 ± 0.059
AVYIEFLYPRRL | 0.644 ± 0.039
AWEWMTVQVVRG | 0.586 ± 0.012
AWGGGEWGGCGR | 0.772 ± 0.027

Sequence | protein stability index
AWGGSWWSLGGM | 0.6715 ± 0.0056
AWGSVVTFLGLR | 0.737 ± 0.054
AWGVCRPGGRGG | 0.681 ± 0.035
AWMSRTRSKNLR | 0.717 ± 0.048
AWPGPKMCWVVK | 0.6294 ± 0.0023
AWRVVRIFFCGG | 0.72 ± 0.15
AWRWGVGVGSGS | 0.735 ± 0.17
AYRISCAGHIMA | 0.684 ± 0.053
AYRRPKFLEGTF | 0.694 ± 0.1
AYTSVSVDHLIH | 0.673 ± 0.0069
CAGVGGGLVSLG | 0.688 ± 0.082
CASSFSFFRFPP | 0.586 ± 0.019
CAVLGGGGVWGA | 0.596 ± 0.035
CAVSFPLCLLPP | 0.6439 ± 0.0036
CCARRWLNFEYW | 0.72 ± 0.032
CCGQRYACVFQT | 0.651 ± 0.029
CCKMITYKEGRE | 0.692 ± 0.06
CCLGVFFGVGGL | 0.772 ± 0.12
CCLNHIFECLTL | 0.7012 ± 0.0066
CCLSCGRPTLGS | 0.731 ± 0.067
CCRICCCLLGTH | 0.658 ± 0.032
CDGGCSWGGLMG | 0.795 ± 0.071
CDRNLSYGAGSV | 0.705 ± 0.049
CEPPRPGLLPLF | 0.724 ± 0.016
CESRSIVSFVLL | 0.73 ± 0.11

Sequence | protein stability index
CFFLVLPPFPLF | 0.518 ± 0.028
CFGFVRSLGWWG | 0.6486 ± 0.0027
CFMGCAKRVTLI | 0.561 ± 0.039
CFRTVPPPALTR | 0.7199 ± 0.002
CGAGGARGSVAR | 0.693 ± 0.026
CGALKGKKPYGV | 0.715 ± 0.057
CGALSVLGWEPF | 0.71615 ± 0.0001
CGCFLSELATFC | 0.652 ± 0.059
CGCVSWYYGALD | 0.628 ± 0.0073
CGEALGVSWMTL | 0.684 ± 0.0038
CGEWSWAGVGVR | 0.702 ± 0.032
CGFCVCWSGVAL | 0.72 ± 0.045
CGFFSGLLYFSL | 0.586 ± 0.028
CGGAQRREGGLG | 0.649 ± 0.03
CGLASHLCSGRG | 0.66 ± 0.081
CGLRGAGVLCWG | 0.483 ± 0.051
CGLRRFTGLAWS | 0.6372 ± 0.00093
CGLRVAGVLCWG | 0.465 ± 0.05
CGPLPLVRSLLP | 0.7031 ± 0.0023
CGRCVRGGRPWG | 0.577 ± 0.012
CGRGVWAVVGVP | 0.715 ± 0.028
CGRSGALGPWGG | 0.673 ± 0.0053
CGSAIGEARDLG | 0.621 ± 0.021
CGSTLLPESYIQ | 0.645 ± 0.052
CGTVVISGIVWR | 0.647 ± 0.04

Sequence | protein stability index
CGVHESAIQPNL | 0.605 ± 0.0081
CGWGVMDAVGSR | 0.685 ± 0.019
CHILGSINKIKE | 0.7 ± 0.039
CHRLGRTTGRIR | 0.692 ± 0.026
CIGVRFVNAHEG | 0.771 ± 0.1
CILPVLRGMSPA | 0.616 ± 0.011
CIQRYSTAHPYH | 0.679 ± 0.06
CIVSARCWRSPY | 0.609 ± 0.0072
CKQIESRLLEGQ | 0.64 ± 0.024
CLAPPTFAPSSL | 0.752 ± 0.081
CLCLGGIWIVGG | 0.63 ± 0.027
CLDRRCTSRGCI | 0.717 ± 0.03
CLFSFGPLAVNI | 0.6 ± 0.0079
CLGLVSLSGGAR | 0.712 ± 0.073
CLGRDVENRDAW | 0.785 ± 0.078
CLGSGGRVSRGA | 0.6715 ± 0.0022
CLHLDQAACVGS | 0.695 ± 0.1
CLIGHFFSVIFY | 0.5239 ± 0.0051
CLLLPPLATFPR | 0.695 ± 0.017
CLLSRGLTVSYS | 0.626 ± 0.012
CLPGVVRGLSTM | 0.703 ± 0.036
CLPLPAPLLAHL | 0.666 ± 0.16
CLPRFLGLGGRV | 0.68 ± 0.072
CLRPGAPESSIP | 0.673 ± 0.1
CLRRGGAGDGAS | 0.678 ± 0.011

Sequence | protein stability index
CLSPAPLPPFFY | 0.6724 ± 0.0018
CLSYSVCPFWEA | 0.807 ± 0.0087
CLTTVCHRRVRC | 0.655 ± 0.075
CLVGSLTDIAWL | 0.756 ± 0.028
CLVSGGRVSRGA | 0.6578 ± 0.0019
CLVWGGCYWDVG | 0.6019 ± 0.0015
CLWSDQLFFYFG | 0.734 ± 0.025
CLYLLFGLLHVG | 0.545 ± 0.02
CMFATFLFVPPL | 0.591 ± 0.014
CPDFSSSLTFFL | 0.706 ± 0.014
CPFPSPTPPPPC | 0.726 ± 0.095
CPGTSLVLPPLL | 0.688 ± 0.019
CPIASSRHSVGL | 0.823 ± 0.12
CPIKSLLPGSFA | 0.693 ± 0.03
CPLPGSRHLAPV | 0.742 ± 0.068
CPLPPSTPPLRL | 0.709 ± 0.0098
CPPARLLPHPPA | 0.733 ± 0.013
CPPCPSAPPPLP | 0.752 ± 0.07
CPPFLTPRLAPA | 0.778 ± 0.2
CPPPPPPPRPPP | 0.639 ± 0.0095
CPSPPPIPLTLS | 0.6221 ± 0.001
CQDDGTAKRHKG | 0.676 ± 0.061
CQFPSLPLPSFM | 0.66 ± 0.032
CRAPSPRPWRPH | 0.708 ± 0.062
CRFLDVSSWILI | 0.707 ± 0.065

Sequence | protein stability index
CRGILVGVWRCG | 0.5856 ± 0.0014
CRGSGGRVVLVG | 0.674 ± 0.041
CRKPRPLSFPLV | 0.701 ± 0.043
CRRSCPRLTVTR | 0.746 ± 0.015
CRSLSAPLPGSF | 0.657 ± 0.021
CRTFSALVDRFT | 0.687 ± 0.046
CRTPQICASCLC | 0.59 ± 0.015
CRTSRSSSLPPY | 0.7218 ± 0.0054
CRVNSVRPVYPS | 0.7079 ± 0.0049
CSEGSSFVDKRG | 0.594 ± 0.039
CSERGQVCAVVY | 0.553 ± 0.066
CSFCVLGPGLHL | 0.672 ± 0.047
CSLRSSGLGFKQ | 0.62 ± 0.072
CSPSYTCRIISF | 0.7076 ± 0.006
CSRFGRLCYNGE | 0.618 ± 0.023
CSRPSLPIYYCS | 0.581 ± 0.028
CSSACPPPPPAT | 0.733 ± 0.014
CSVCPGYLFGCA | 0.601 ± 0.025
CSVPPPLPPTTF | 0.683 ± 0.073
CTFCLGSATVRT | 0.702 ± 0.04
CTGLEGGGLPFR | 0.636 ± 0.12
CTGVFTGRCEGG | 0.653 ± 0.028
CTISHSGHSGST | 0.706 ± 0.058
CTQCCSGARLFM | 0.672 ± 0.081
CTRHNGTCRVKA | 0.658 ± 0.017

Sequence | protein stability index
CTRRRLLVPRVK | 0.599 ± 0.028
CTVGWNLVFQFG | 0.641 ± 0.08
CVAACSGHAAVG | 0.692 ± 0.017
CVAAISGESLLR | 0.667 ± 0.021
CVDGLFCCLVFW | 0.571 ± 0.028
CVFLGRMSFLAF | 0.602 ± 0.03
CVGTDVWQASSR | 0.6 ± 0.057
CVIGRDGTDLWV | 0.685 ± 0.0089
CVPYLGEFTRNG | 0.691 ± 0.038
CVVAISGLSHFL | 0.623 ± 0.015
CVWCSGRSPCYV | 0.634 ± 0.047
CVWKWFSFSGGG | 0.69 ± 0.021
CWGGGGLWLLEV | 0.515 ± 0.012
CWGGWGLWLLEV | 0.516 ± 0.023
CWGLRVMGGTGR | 0.702 ± 0.013
CWSCLRGYRFQT | 0.664 ± 0.028
CYIFFFSRELFY | 0.5685 ± 0.0045
DAGVDVGVGTHD | 0.605 ± 0.041
DAGWTRGGEGVW | 0.739 ± 0.032
DARTLTECTCRG | 0.648 ± 0.072
DASLTSGVARST | 0.67 ± 0.042
DAVRRNSAWFSF | 0.677 ± 0.025
DAWRAGESTEGG | 0.71 ± 0.027
DCLSVWCSIPGA | 0.775 ± 0.086
DCRELCQSEVMG | 0.643 ± 0.1

Sequence | protein stability index
DCRPNIRSRVSG | 0.785 ± 0.18
DCSCIYGHRVVV | 0.6466 ± 0.0038
DCVRMLREGAGW | 0.721 ± 0.079
DDFSHVEVFERV | 0.7 ± 0.062
DDGGQPKVLLCV | 0.6688 ± 0.0011
DDGRVSLGEQSG | 0.673 ± 0.036
DEFCSHSLAGSS | 0.649 ± 0.024
DEGFSRSGLLLK | 0.6921 ± 0.003
DEPGTEGAKPWR | 0.727 ± 0.074
DETELTQRTKRV | 0.656 ± 0.017
DFEVGPMGGFRC | 0.674 ± 0.057
DFGYSLRIIRSE | 0.746 ± 0.0099
DFLDPLQDEWPC | 0.805 ± 0.039
DFPIEEILGLVG | 0.65 ± 0.05
DFQRPGSFVFNG | 0.658 ± 0.048
DFRAGPLPCRPP | 0.6952 ± 0.0041
DGCRCQSMSKIS | 0.553 ± 0.18
DGGAGGLGLLGG | 0.651 ± 0.0081
DGGAGWLGLLGG | 0.713 ± 0.034
DGGALGVKGCDR | 0.694 ± 0.054
DGGVGGGAPRVR | 0.78 ± 0.14
